B1: BRASSINOSTEROID … 1-associated receptor kinase 1 (Arabidopsis thaliana (Mouse-ear cress)), Q94F62 (parent)
chain: MERRLMIPCFFWLILVLDLVLRVSGNAEGDALSALKNSLADPNKVLQSWDATLVTPCTWFHVTCNSDNSVTRVDLGNANLSGQLVMQLGQLPNLQYLELYSNNITGTIPEQLGNLTELVSLDLYLNNLSGPIPSTLGRLKKLRFLRLNNNSLSGEIPRSLTAVLTLQVLDLSNNPLTGDIPVNGSFSLFTPISFANTKLTPLPASPPPPISPTPPSPAGSNRITGAIAGGVAAGAALLFAVPAIALAWWRRKKPQDHFFDVPAEEDPEVHLGQLKRFSLRELQVASDNFSNKNILGRGGFGKVYKGRLADGTLVAVKRLKEERTQGGELQFQTEVEMISMAVHRNLLRLRGFCMTPTERLLVYPYMANGSVASCLRERPESQPPLDWPKRQRIALGSARGLAYLHDHCDPKIIHRDVKAANILLDEEFEAVVGDFGLAKLMDYKDTHVTTAVRGTIGHIAPEYLSTGKSSEKTDVFGYGVMLLELITGQRAFDLARLANDDDVMLLDWVKGLLKEKKLEALVDVDLQGNYKDEEVEQLIQVALLCTQSSPMERPKMSEVVRMLEGDGLAERWEEWQKEEMFRQDFNYPTHHPAVSGWIIGDSTSQIENEYPSGPR
B2: A-type flagellin (Pseudomonas aeruginosa), P21184 (parent)
chain: MALTVNTNIASLNTQRNLNNSSASLNTSLQRLSTGSRINSAKDDAAGLQIANRLTSQVNGLNVATKNANDGISLAQTAEGALQQSTNILQRMRDLSLQSANGSNSDSERTALNGEVKQLQKELDRISNTTTFGGRKLLDGSFGVASFQVGSAANEIISVGIDEMSAESLNGTYFKADGGGAVTAATASGTVDIAIGITGGSAVNVKVDMKGNETAEQAAAKIAAAVNDANVGIGAFSDGDTISYVSKAGKDGSGAITSAVSGVVIADTGSTGVGTAAGVTPSATAFAKTNDTVAKIDISTAKGAQSAVLVIDEAIKQIDAQRADLGAVQNRFDNTINNLKNIGENVSAARGRIEDTDFAAETANLTKNQVLQQAGTAILAQANQLPQSVLSLLR

Variants of: B1
Conditions: with flica_pseai fliC

Variant | effect of a mutation on the interaction
L53A | decreasing interaction strength
Y96A | decreasing interaction strength
V54Y | decreasing interaction strength
F60A;F144A | disrupting interaction strength

Variants of: B1
Conditions: with fls2_arath FLS2, Q9FL28
Target sequence in this assay (Q9FL28 whole entry): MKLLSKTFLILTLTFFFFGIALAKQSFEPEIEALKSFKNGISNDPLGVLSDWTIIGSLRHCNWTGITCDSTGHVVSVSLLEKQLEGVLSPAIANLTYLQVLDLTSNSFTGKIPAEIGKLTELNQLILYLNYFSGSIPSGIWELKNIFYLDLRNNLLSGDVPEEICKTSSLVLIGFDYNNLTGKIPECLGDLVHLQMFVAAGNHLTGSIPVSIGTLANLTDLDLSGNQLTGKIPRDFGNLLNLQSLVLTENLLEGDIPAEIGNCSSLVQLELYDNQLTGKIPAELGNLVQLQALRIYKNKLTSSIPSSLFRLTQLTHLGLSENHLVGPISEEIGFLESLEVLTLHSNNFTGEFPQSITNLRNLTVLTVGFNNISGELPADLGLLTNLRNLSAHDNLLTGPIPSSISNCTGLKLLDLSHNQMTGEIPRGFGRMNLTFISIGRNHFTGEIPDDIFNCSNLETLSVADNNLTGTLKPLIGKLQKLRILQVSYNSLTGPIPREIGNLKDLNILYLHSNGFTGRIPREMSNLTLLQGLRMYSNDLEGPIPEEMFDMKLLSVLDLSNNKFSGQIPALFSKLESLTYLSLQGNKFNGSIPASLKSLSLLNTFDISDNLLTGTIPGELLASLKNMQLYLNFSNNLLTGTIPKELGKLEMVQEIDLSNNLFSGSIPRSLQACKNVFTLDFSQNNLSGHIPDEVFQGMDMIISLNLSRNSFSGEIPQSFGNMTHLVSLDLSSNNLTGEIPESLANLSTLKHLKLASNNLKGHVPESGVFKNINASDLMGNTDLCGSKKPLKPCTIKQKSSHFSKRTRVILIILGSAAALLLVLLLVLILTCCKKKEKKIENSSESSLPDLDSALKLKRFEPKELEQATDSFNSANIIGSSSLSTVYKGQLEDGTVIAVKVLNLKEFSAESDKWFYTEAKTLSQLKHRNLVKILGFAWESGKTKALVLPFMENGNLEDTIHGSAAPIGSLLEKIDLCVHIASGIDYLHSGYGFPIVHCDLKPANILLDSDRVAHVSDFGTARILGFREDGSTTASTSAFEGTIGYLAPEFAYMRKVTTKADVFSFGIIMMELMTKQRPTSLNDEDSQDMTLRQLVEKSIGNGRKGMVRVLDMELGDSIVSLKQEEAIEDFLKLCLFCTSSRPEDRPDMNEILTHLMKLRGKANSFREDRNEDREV

Variant | effect of a mutation on the interaction
L53A | disrupting interaction strength
Y96A | disrupting interaction strength
V54Y | disrupting interaction strength
F60A;F144A | disrupting interaction strength

Variants of: B2
Conditions: with fls2_arath FLS2, Q9FL28
Target sequence in this assay (Q9FL28 whole entry): as above

Variant | effect of a mutation on the interaction
MALTVNTNIASLNTQRNLNNSSASLNTSLQRLSTGSRINSAKDDAYGLQIANRLTSQVNGLNVATKNANDGISLAQTAEGALQQSTNILQRMRDLSLQSANGSNSDSERTALNGEVKQLQKELDRISNTTTFGGRKLLDGSFGVASFQVGSAANEIISVGIDEMSAESLNGTYFKADGGGAVTAATASGTVDIAIGITGGSAVNVKVDMKGNETAEQAAAKIAAAVNDANVGIGAFSDGDTISYVSKAGKDGSGAITSAVSGVVIADTGSTGVGTAAGVTPSATAFAKTNDTVAKIDISTAKGAQSAVLVIDEAIKQIDAQRADLGAVQNRFDNTINNLKNIGENVSAARGRIEDTDFAAETANLTKNQVLQQAGTAILAQANQLPQSVLSLLR [A46Y] | decreasing interaction strength
MALTVNTNIASLNTQRNLNNSSASLNTSLQRLSTGSRINSAKADAAGLQIANRLTSQVNGLNVATKNANDGISLAQTAEGALQQSTNILQRMRDLSLQSANGSNSDSERTALNGEVKQLQKELDRISNTTTFGGRKLLDGSFGVASFQVGSAANEIISVGIDEMSAESLNGTYFKADGGGAVTAATASGTVDIAIGITGGSAVNVKVDMKGNETAEQAAAKIAAAVNDANVGIGAFSDGDTISYVSKAGKDGSGAITSAVSGVVIADTGSTGVGTAAGVTPSATAFAKTNDTVAKIDISTAKGAQSAVLVIDEAIKQIDAQRADLGAVQNRFDNTINNLKNIGENVSAARGRIEDTDFAAETANLTKNQVLQQAGTAILAQANQLPQSVLSLLR [D43A] | disrupting interaction strength
MALTVNTNIASLNTQRNLNNSSASLNTSLQRLSTGSRINSAKDAAAGLQIANRLTSQVNGLNVATKNANDGISLAQTAEGALQQSTNILQRMRDLSLQSANGSNSDSERTALNGEVKQLQKELDRISNTTTFGGRKLLDGSFGVASFQVGSAANEIISVGIDEMSAESLNGTYFKADGGGAVTAATASGTVDIAIGITGGSAVNVKVDMKGNETAEQAAAKIAAAVNDANVGIGAFSDGDTISYVSKAGKDGSGAITSAVSGVVIADTGSTGVGTAAGVTPSATAFAKTNDTVAKIDISTAKGAQSAVLVIDEAIKQIDAQRADLGAVQNRFDNTINNLKNIGENVSAARGRIEDTDFAAETANLTKNQVLQQAGTAILAQANQLPQSVLSLLR [D44A] | disrupting interaction strength

Variants of: B2
Conditions: with bak1_arath BAK1, Q94F62

Variant | effect of a mutation on the interaction
MALTVNTNIASLNTQRNLNNSSASLNTSLQRLSTGSRINSAKDDAAYLQIANRLTSQVNGLNVATKNANDGISLAQTAEGALQQSTNILQRMRDLSLQSANGSNSDSERTALNGEVKQLQKELDRISNTTTFGGRKLLDGSFGVASFQVGSAANEIISVGIDEMSAESLNGTYFKADGGGAVTAATASGTVDIAIGITGGSAVNVKVDMKGNETAEQAAAKIAAAVNDANVGIGAFSDGDTISYVSKAGKDGSGAITSAVSGVVIADTGSTGVGTAAGVTPSATAFAKTNDTVAKIDISTAKGAQSAVLVIDEAIKQIDAQRADLGAVQNRFDNTINNLKNIGENVSAARGRIEDTDFAAETANLTKNQVLQQAGTAILAQANQLPQSVLSLLR [G47Y] | disrupting interaction strength
MALTVNTNIASLNTQRNLNNSSASLNTSLQRLSTGSRINSAKDDAAALQIANRLTSQVNGLNVATKNANDGISLAQTAEGALQQSTNILQRMRDLSLQSANGSNSDSERTALNGEVKQLQKELDRISNTTTFGGRKLLDGSFGVASFQVGSAANEIISVGIDEMSAESLNGTYFKADGGGAVTAATASGTVDIAIGITGGSAVNVKVDMKGNETAEQAAAKIAAAVNDANVGIGAFSDGDTISYVSKAGKDGSGAITSAVSGVVIADTGSTGVGTAAGVTPSATAFAKTNDTVAKIDISTAKGAQSAVLVIDEAIKQIDAQRADLGAVQNRFDNTINNLKNIGENVSAARGRIEDTDFAAETANLTKNQVLQQAGTAILAQANQLPQSVLSLLR [G47A] | decreasing interaction strength

Reference: IntAct's records for PubMed 24114786
